Patent US20250361268A1, “NOVEL ANTI-INFLAMMATORY PEPTIDE AND USE THEREOF” (NOVACELL TECHNOLOGY INC., priority 2022, published 2025)

Assays:
[1] = target: T1, formyl peptide receptor 2 (FPR2) (UniProt P25090 1-351, limits assumed); test: cell-based or functional assay
T1 sequence (looked up): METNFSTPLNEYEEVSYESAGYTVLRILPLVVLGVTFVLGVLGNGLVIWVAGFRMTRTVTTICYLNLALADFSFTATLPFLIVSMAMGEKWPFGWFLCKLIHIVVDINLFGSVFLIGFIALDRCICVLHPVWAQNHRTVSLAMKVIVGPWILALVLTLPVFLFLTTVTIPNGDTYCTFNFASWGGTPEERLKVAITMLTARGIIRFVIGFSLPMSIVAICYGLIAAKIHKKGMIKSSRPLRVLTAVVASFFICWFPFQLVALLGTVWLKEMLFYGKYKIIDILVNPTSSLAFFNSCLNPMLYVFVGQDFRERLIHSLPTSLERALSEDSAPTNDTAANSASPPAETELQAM

[2] = target: T2, FPR1 (UniProt P21462 1-350, limits assumed); test: cell-based or functional assay
T2 sequence (looked up): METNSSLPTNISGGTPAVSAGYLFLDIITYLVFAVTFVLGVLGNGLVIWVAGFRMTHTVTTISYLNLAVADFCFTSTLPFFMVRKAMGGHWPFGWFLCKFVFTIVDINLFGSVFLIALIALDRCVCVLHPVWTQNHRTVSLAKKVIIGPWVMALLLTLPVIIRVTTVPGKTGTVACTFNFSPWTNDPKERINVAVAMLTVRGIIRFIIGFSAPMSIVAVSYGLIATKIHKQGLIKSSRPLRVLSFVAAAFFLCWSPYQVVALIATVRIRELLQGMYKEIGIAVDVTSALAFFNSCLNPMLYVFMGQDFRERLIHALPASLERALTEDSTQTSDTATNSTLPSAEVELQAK

B1: peptide of SEQ ID NO 18 (peptide)
peptide: MKYKVM
HELM: PEPTIDE1{[ac].M.K.Y.K.V.[dM].[am]}$$$$V2.0
SMILES: CSCC[C@H](NC(C)=O)C(=O)N[C@@H](CCCCN)C(=O)N[C@@H](Cc1ccc(O)cc1)C(=O)N[C@@H](CCCCN)C(=O)N[C@H](C(=O)N[C@H](CCSC)C(N)=O)C(C)C
- EC50 for [Ca2+] [1]: < 0.01 µM
- EC50 for [Ca2+] [2]: > 10 µM

B2: peptide of SEQ ID NO 19 (peptide)
peptide: MKYKVM
HELM: PEPTIDE1{[CCCC(=O)[*:2]].M.K.Y.K.V.[dM].[am]}$$$$V2.0
SMILES: CCCC(=O)N[C@@H](CCSC)C(=O)N[C@@H](CCCCN)C(=O)N[C@@H](Cc1ccc(O)cc1)C(=O)N[C@@H](CCCCN)C(=O)N[C@H](C(=O)N[C@H](CCSC)C(N)=O)C(C)C
- EC50 for [Ca2+] [1]: < 0.01 µM
- EC50 for [Ca2+] [2]: > 10 µM

B3: peptide of SEQ ID NO 21 (peptide)
peptide: HMKYKVM
HELM: PEPTIDE1{H.M.K.Y.K.V.[dM].[am]}$$$$V2.0; N-terminus assumed
SMILES: CSCC[C@H](NC(=O)[C@@H](N)Cc1c[nH]cn1)C(=O)N[C@@H](CCCCN)C(=O)N[C@@H](Cc1ccc(O)cc1)C(=O)N[C@@H](CCCCN)C(=O)N[C@H](C(=O)N[C@H](CCSC)C(N)=O)C(C)C
- EC50 for [Ca2+] [1]: < 0.01 µM
- EC50 for [Ca2+] [2]: > 10 µM

B4: peptide of SEQ ID NO 22 (peptide)
peptide: HMKYKVM
HELM: PEPTIDE1{[ac].H.M.K.Y.K.V.[dM].[am]}$$$$V2.0
SMILES: CSCC[C@H](NC(=O)[C@H](Cc1c[nH]cn1)NC(C)=O)C(=O)N[C@@H](CCCCN)C(=O)N[C@@H](Cc1ccc(O)cc1)C(=O)N[C@@H](CCCCN)C(=O)N[C@H](C(=O)N[C@H](CCSC)C(N)=O)C(C)C
- EC50 for [Ca2+] [1]: < 0.01 µM
- EC50 for [Ca2+] [2]: > 10 µM

B5: peptide of SEQ ID NO 23 (peptide)
peptide: HMKYKVM
HELM: PEPTIDE1{[CCCC(=O)[*:2]].H.M.K.Y.K.V.[dM].[am]}$$$$V2.0
SMILES: CCCC(=O)N[C@@H](Cc1c[nH]cn1)C(=O)N[C@@H](CCSC)C(=O)N[C@@H](CCCCN)C(=O)N[C@@H](Cc1ccc(O)cc1)C(=O)N[C@@H](CCCCN)C(=O)N[C@H](C(=O)N[C@H](CCSC)C(N)=O)C(C)C
- EC50 for [Ca2+] [1]: < 0.01 µM
- EC50 for [Ca2+] [2]: > 10 µM

B6: peptide of SEQ ID NO 24 (peptide)
peptide: HMKYKVM
HELM: PEPTIDE1{[CCCCCCCC(=O)[*:2]].H.M.K.Y.K.V.[dM].[am]}$$$$V2.0
SMILES: CCCCCCCC(=O)N[C@@H](Cc1c[nH]cn1)C(=O)N[C@@H](CCSC)C(=O)N[C@@H](CCCCN)C(=O)N[C@@H](Cc1ccc(O)cc1)C(=O)N[C@@H](CCCCN)C(=O)N[C@H](C(=O)N[C@H](CCSC)C(N)=O)C(C)C
- EC50 for [Ca2+] [1]: < 0.01 µM
- EC50 for [Ca2+] [2]: > 10 µM

B7: peptide of SEQ ID NO 25 (peptide)
peptide: PMKYKVM
HELM: PEPTIDE1{P.M.K.Y.K.V.[dM].[am]}$$$$V2.0; N-terminus assumed
SMILES: CSCC[C@H](NC(=O)[C@@H]1CCCN1)C(=O)N[C@@H](CCCCN)C(=O)N[C@@H](Cc1ccc(O)cc1)C(=O)N[C@@H](CCCCN)C(=O)N[C@H](C(=O)N[C@H](CCSC)C(N)=O)C(C)C
- EC50 for [Ca2+] [1]: < 0.01 µM
- EC50 for [Ca2+] [2]: > 10 µM

B8: peptide of SEQ ID NO 26 (peptide)
peptide: PMKYKVM
HELM: PEPTIDE1{[ac].P.M.K.Y.K.V.[dM].[am]}$$$$V2.0
SMILES: CSCC[C@H](NC(=O)[C@@H]1CCCN1C(C)=O)C(=O)N[C@@H](CCCCN)C(=O)N[C@@H](Cc1ccc(O)cc1)C(=O)N[C@@H](CCCCN)C(=O)N[C@H](C(=O)N[C@H](CCSC)C(N)=O)C(C)C
- EC50 for [Ca2+] [1]: < 0.01 µM
- EC50 for [Ca2+] [2]: > 10 µM
